PMC7949130

Experiments:
[1] = biological target: native sulfated human cationic trypsin purified from pancreatic juice (human); test: equilibrium binding assay; equilibrium dissociation constant of ecotin on human trypsins, 15 h of incubation; further conditions not told for ecotin
[2] = biological target: nonsulfated human cationic trypsin purified from E. coli (human); test: as above

## ecotin (from UniProt P23827 21-162) (natural protein)
[1]
  Kd: 5.6 pM
[2]
  Kd: 8.1 pM
